Results: paper PMC3159478 (Nucleic Acids Research, 2011)

Assays:
Assay in all cases: fluorescence anisotropy
SsoMCM K323A/R440A = target: T1, SsoMCM K323A/R440A (Sulfolobus solfataricus, UniProt Q9UXG1 1-686, K323A;R440A)
T1 sequence: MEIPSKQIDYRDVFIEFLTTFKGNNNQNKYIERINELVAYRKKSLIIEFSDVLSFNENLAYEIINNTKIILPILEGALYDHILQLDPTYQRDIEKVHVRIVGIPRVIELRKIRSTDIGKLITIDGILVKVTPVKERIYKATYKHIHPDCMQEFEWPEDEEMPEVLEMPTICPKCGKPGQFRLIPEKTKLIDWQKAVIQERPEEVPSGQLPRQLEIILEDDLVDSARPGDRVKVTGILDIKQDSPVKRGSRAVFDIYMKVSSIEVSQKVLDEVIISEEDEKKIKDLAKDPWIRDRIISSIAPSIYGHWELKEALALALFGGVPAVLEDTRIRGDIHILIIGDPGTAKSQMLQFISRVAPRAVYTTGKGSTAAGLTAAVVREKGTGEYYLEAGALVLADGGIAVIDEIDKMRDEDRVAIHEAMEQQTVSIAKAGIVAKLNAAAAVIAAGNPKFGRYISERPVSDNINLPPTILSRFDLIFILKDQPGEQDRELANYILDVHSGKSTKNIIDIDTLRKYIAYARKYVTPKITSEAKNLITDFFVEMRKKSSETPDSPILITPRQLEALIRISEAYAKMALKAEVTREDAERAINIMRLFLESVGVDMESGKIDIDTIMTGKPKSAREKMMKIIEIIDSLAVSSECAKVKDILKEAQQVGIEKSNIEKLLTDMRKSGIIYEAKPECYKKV

SsoMCM WT = target: T2, SsoMCM WT (Sulfolobus solfataricus, UniProt Q9UXG1 1-686)
T2 sequence: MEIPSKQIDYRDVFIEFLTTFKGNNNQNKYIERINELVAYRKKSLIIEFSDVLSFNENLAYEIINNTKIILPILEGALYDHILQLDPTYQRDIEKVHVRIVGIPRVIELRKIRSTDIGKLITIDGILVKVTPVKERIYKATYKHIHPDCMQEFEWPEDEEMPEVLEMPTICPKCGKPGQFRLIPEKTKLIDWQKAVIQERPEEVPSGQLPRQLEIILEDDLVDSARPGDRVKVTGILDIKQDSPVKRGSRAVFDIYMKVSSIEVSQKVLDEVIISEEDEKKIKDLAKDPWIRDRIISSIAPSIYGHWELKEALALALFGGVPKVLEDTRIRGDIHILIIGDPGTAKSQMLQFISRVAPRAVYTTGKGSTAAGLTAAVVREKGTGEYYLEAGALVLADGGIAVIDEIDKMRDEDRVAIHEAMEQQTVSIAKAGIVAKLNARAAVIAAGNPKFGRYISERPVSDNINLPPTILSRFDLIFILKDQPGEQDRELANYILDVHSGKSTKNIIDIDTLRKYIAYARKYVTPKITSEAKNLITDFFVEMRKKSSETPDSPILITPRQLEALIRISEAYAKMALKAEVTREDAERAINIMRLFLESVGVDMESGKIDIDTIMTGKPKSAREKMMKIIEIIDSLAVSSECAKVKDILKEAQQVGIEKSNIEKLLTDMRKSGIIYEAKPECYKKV

SsoMCM R440A = target: T3, SsoMCM R440A (Sulfolobus solfataricus, UniProt Q9UXG1 1-686, R440A)
T3 sequence: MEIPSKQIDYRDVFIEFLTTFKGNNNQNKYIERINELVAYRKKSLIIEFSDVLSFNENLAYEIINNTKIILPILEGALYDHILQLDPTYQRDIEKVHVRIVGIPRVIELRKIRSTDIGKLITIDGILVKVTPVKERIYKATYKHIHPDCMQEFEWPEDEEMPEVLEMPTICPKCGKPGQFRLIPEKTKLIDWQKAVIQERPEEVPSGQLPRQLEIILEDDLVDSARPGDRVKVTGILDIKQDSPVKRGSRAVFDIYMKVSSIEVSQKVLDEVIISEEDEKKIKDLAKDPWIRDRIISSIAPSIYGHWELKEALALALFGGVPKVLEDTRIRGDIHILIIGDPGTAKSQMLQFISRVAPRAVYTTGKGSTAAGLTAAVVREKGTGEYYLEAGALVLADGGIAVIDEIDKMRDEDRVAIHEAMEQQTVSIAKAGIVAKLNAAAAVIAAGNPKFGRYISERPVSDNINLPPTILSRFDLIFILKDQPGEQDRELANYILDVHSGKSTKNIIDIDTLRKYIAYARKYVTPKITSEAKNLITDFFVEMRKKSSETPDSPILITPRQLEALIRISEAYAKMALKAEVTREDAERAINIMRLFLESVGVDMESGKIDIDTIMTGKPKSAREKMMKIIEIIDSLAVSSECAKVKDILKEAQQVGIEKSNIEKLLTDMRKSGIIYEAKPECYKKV

SsoMCM K323A = target: T4, SsoMCM K323A (Sulfolobus solfataricus, UniProt Q9UXG1 1-686, K323A)
T4 sequence: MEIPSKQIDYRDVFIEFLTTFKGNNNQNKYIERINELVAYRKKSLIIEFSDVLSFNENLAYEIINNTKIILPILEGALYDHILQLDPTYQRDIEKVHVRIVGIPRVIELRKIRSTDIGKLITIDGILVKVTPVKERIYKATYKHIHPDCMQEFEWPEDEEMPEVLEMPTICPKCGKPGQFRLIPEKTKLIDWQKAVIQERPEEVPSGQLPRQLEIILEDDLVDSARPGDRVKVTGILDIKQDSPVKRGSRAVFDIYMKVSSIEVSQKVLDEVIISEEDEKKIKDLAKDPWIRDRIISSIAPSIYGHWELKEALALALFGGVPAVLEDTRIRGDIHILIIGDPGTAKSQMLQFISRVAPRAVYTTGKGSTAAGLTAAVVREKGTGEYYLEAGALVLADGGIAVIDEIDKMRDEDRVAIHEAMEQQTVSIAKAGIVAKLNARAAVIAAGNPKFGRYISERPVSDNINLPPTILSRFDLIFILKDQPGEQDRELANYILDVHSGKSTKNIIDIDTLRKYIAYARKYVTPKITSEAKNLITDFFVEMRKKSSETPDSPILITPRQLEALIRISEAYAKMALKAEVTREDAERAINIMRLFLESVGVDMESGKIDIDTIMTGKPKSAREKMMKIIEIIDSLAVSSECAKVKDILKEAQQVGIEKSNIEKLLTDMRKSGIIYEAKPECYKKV

B1: fork 5'-tail-50 nt / 3'-tail-30 nt (mixed)
DNA 1: CACCTCTCCCTACGCTTCCCACCCACCCCGACCGGCATCTGCTATGGTACGCTGAGCGAGAGTAGC
DNA 2: CGATGAGAGCCGATGAGAGCCGATGAGAGCGAGTCGCATGGTATCGTCTAGCCGGTCGGGGTGGGTGGGAAGCGTAGGGAGAGGTG
In the case of B1, the Kd (SsoMCM K323A/R440A) is reported as 90 ± 9 nM, the Kd (SsoMCM WT) is reported as 75 ± 13 nM and the Kd (SsoMCM R440A) is reported as 92 ± 13 nM. It also gave a Kd (SsoMCM K323A) of 93 ± 10 nM.
